Experimental data as given in patent publication US10858688.

Biological target: intermediate filament in fixed and permeabilized Xenopus laevis XTC cells (Xenopus laevis)
Test: single-molecule speckle (SiMS) TIRF imaging of EGFP-fused probe (cell lysate) on fixed, permeabilized XTC cells; exponential fit of speckle lifetimes

Substance | half-life
Plectin-1 fragment (amino acid residues 3777-4364 of sequence number 8), FLAG-EGFP fused at the N terminus | 0.059 s
Plectin-1 fragment (amino acid residues 3777-4684 of sequence number 8), FLAG-EGFP fused at the N terminus | 0.457 s
Plectin-1 fragment (amino acid residues 4022-4364 of sequence number 8), FLAG-EGFP fused at the N terminus | 0.103 s

Continued, values first:

half-life | Substance
0.052 s | Plectin-1 fragment (amino acid residues 3777-4313 of sequence number 8), FLAG-EGFP fused at the N terminus
7.7 s | Plectin-1 fragment (amino acid residues 4066-4364 of sequence number 8), FLAG-EGFP fused at the N terminus

Biological target: microtubule in fixed and permeabilized Xenopus laevis XTC cells (Xenopus laevis)
Test: as above

Substance | half-life
CLIP-170 fragment (amino acid residues 3-309 of sequence number 12), FLAG-EGFP fused at the N terminus | 0.044 s
Tau isoform 4 (sequence number 6, residues 1-352), FLAG-EGFP fused at the N terminus | 0.06 s
MAP4 fragment (amino acid residues 1-908 of sequence number 4), FLAG-EGFP fused at the N terminus | 0.109 s
APC fragment (amino acid residues 2536-2843 of sequence number 14), EGFP-3xFLAG fused at the C terminus | 0.1 s
MAP4 fragment (amino acid residues 659-908 of sequence number 4), FLAG-EGFP fused at the N terminus | 0.106 s

Continued, values first:

half-life | Substance
0.027 s | APC fragment (amino acid residues 2781-2819 of sequence number 14), FLAG-EGFP fused at the N terminus
0.11 s | Tau isoform 3 (full length of sequence number 5, residues 1-383), FLAG-EGFP fused at the N terminus

Biological target: focal adhesion in fixed and permeabilized Xenopus laevis XTC cells (Xenopus laevis)
Test: as above

Substance | half-life
Paxillin full length (FL) (full length of sequence number 15, residues 1-557), FLAG-EGFP fused at the N terminus | 0.196 s
Paxillin fragment (amino acid residues 167-557 of sequence number 15), FLAG-EGFP fused at the N terminus | 0.138 s

Now from value to substance:

half-life | Substance
0.091 s | Paxillin fragment (amino acid residues 54-498 of sequence number 15), FLAG-EGFP fused at the N terminus
0.496 s | phosphatidylinositol-(4)-phosphate 5-kinase type Iγ-90 (PIPKIγ) fragment (641-668) (sequence number 18), N terminus tagged with FLAG-EGFP
0.246 s | Paxillin fragment (amino acid residues 54-557 of sequence number 15), FLAG-EGFP fused at the N terminus
